Assay results taken from patent US8598081B2, “Specific delivery of agrochemicals” (priority 2010, dated 2013).
Residue numbers refer to the chain shown, from its start.

Assays:
potato lectin [1] = biological target: T1, potato lectin (Solanum tuberosum, UniProt Q9S8M0); assay: ELISA-like assay, microcapsules with monovalent or bivalent VHH, potato lectin; type: binding; parameters: Surface area of bound microcapsules: unit not given here
T1 construct: purchased Sigma
T1 sequence (Q9S8M0 whole entry, looked up): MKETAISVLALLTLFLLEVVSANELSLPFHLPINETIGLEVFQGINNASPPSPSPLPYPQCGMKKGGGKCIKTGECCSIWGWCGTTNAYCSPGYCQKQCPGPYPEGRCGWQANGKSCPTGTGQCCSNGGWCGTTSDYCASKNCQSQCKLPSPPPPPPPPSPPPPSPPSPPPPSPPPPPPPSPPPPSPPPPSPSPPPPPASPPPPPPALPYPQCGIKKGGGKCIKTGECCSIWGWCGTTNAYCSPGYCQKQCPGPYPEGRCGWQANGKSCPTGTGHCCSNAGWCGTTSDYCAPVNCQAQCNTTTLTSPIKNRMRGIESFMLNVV
Description: (§1) Bivalent VHH constructs were produced in bacteria by cloning two VHH sequences in tandem into the pASF22 vector, creating a fusion of two VHH with a 9 glycine-serine linker (GGGGSGGGS (SEQ ID NO:50)) in between the two VHH. pASF22 is an in-house produced pMES derivative. The tags that were used were C-terminal c-Myc (EQKLISEEDLN (SEQ ID NO:51)) and hexahistidine (HHHHHH (SEQ ID NO:52)). A triple alanine linker (AAA) was placed in between the C-terminal end of the VHH and the c-Myc tag and a glycine-alanine-alanine (GAA) linker was used in between the C-terminal end of the c-Myc tag and the hexahistidine tag. The complete sequence C-terminal of the bivalent VHH that was used: AAA-EQKLISEEDLN-GAA-HHHHHH (SEQ ID NO:53). Fresh overnight cultures were produced by starting from colony streaks and inoculation of 2×TY media supplemented with 2% glucose and 100 μg/ml ampicillin. The overnight cultures were used to inoculate fresh cultures 1:100 in 2×TY media with 0.1% glucose and 100 μg/ml ampicillin. After growing at 37° C. in a shaking incubator for 3 hours, IPTG was added to a 1 mM final concentration and recombinant bivalent VHH were produced during an additional incubation for 4 hours. Cells were spun down and resuspended in 1/50th of the original culture volume of PBS and incubated with head-over-head rotation at 4° C. for 30 minutes. Spheroplasts were spun down by centrifugation at 3,000 g and 4° C. for 20 minutes. Supernatants were transferred to fresh tubes and centrifuged again at 3,000 g and 4° C. for 20 minutes. The supernatant was collected and sodium chloride concentration was adjusted to 500 mM and imidazole concentration to 20 mM. Hexahistidine-tagged bivalent VHH were purified from the extracts using HisTrap FF Crude 5 ml IMAC columns (GE Lifesciences) and HiLoad 16/60 Superdex 75 prep grade gel filtration column (GE Lifesciences) on an AKTAxpress system (GE Lifesciences) following standard procedures.
(§2) Next, it was investigated if binding of microcapsules to surfaces could be improved by using targeting agents comprising multivalent VHH. A series of parallel couplings was performed with equal amounts of monovalent VHH, bivalent VHH, and unrelated VHH. Success of coupling of VHH and multivalent VHH were analyzed as described in Example 4. An ELISA-like assay was performed using high bind half area microplates (Greiner Bio-One) coated with 5 μg/well potato lectin. Control wells included blank wells or wells coated with unrelated antigens. Plates were washed three times with PBS with 0.05%-TWEEN®-20 and blocked with 5% skimmed milk in PBS for 1 to 2 hours. VHH-coupled Uvitex-containing microcapsules were diluted to appropriate densities in 1% skimmed milk in PBS with 0.05%-TWEEN®-20. Five-fold serial dilution series were prepared and allowed to bind to the surface to compare binding of microcapsules coupled with monovalent or bivalent VHH. Microcapsules were added to the antigen-coated or control wells and allowed to bind for 1 hour. Unbound microcapsules were removed by washing five times with PBS with 0.05%-TWEEN®-20. The bottoms of ELISA plate wells were analyzed for bound microcapsules on a macrozoom microscope system (Nikon). Microcapsules were counted using Volocity image analysis software (Perkin Elmer). A DAPI filter was used to visualize Uvitex microcapsules. […] The surface area of microcapsules with coupled bivalent VHH was 15-fold above the surface area of blank microcapsules applied at this microcapsule density while the surface area of microcapsules with monovalent VHH was only six-fold above the surface area of blank microcapsules applied at this microcapsule density. This difference could be explained by an increase in binding strength due to additional avidity of the bivalent VHH compared to monovalent VHH, it could also be that the use of bivalent VHH increases flexibility and spacer length of the coupled targeting agents on microcapsules, or a combination of both.

[2] = ELISA-like assay, microcapsules with monovalent or bivalent VHH, unrelated antigen; type: binding; parameters: unit not given beside the values; settings: Uvitex microcapsules
Description: as §1, §2

gum arabic = assay: VHH binding to gum arabic in ELISA; parameters: species or system acacia tree
Protocol: Titration of VHH antibody fragments was performed on ELISA plates (Maxisorp, Nunc) coated with 100 μl per well 100 μg/ml gum arabic in 50 mM carbonate pH 9.6. Plates were coated at 4° C. overnight and coating was continued at room temperature for 1 hour on the next day. Plates were washed three times with PBS/0.05%-TWEEN®-20 and blocked with 5% skimmed milk in PBS for 1 hour. Four-fold serial dilutions of purified VHH antibody fragments were prepared in 1% MPBS/0.05%-TWEEN®-20 in polypropylene 96-well plates. Antibody concentrations ranged from 3 μg/ml to 12 ng/ml. Antibody dilutions were transferred to the gum arabic-coated plates and VHH antibody fragments were allowed to bind for 1 hour at room temperature. Bound VHH were detected with sequential incubations with monoclonal mouse anti-histidine antibodies (Abd Serotec) and rabbit anti-mouse IgG whole molecule antibodies conjugated with alkaline phosphatase (RaM/AP) (Sigma) in 1% MPBS/0.05%-TWEEN®-20. Unbound antibodies were removed by washing three times with PBS/0.05%-TWEEN®-20 after each antibody incubation. The plates were washed an additional two times with PBS and 100 μl pNPP disodium hexahydrate substrate (Sigma) was added to each well. The absorbance at 405 nm was measured and plotted as function of antibody concentration (see Table 1).

potato lectin [3] = biological target: T1, potato lectin; assay: VHH binding to potato lectin in ELISA; settings: Table 2; Blank (no antigen coating); VHH 3 μg/ml
Protocol: ELISA plates (Maxisorp, Nunc) coated with 100 μl per well 100 μg/ml potato lectin (Sigma) in PBS were coated at 4° C. overnight and coating was continued at room temperature for 1 hour on the next day. Plates were washed three times with PBS/0.05%-TWEEN®-20 and blocked with 5% skimmed milk in PBS for 1 hour. VHH (3 μg/ml) were transferred to the potato lectin-coated plates and VHH antibody fragments were allowed to bind for 1 hour at room temperature. Bound VHH were detected with sequential incubations with monoclonal mouse anti-histidine antibodies (Abd Serotec) and rabbit anti-mouse IgG whole molecule antibodies conjugated with alkaline phosphatase (RaM/AP) (Sigma) in 1% MPBS/0.05%-TWEEN®-20. Unbound antibodies were removed by washing three times with PBS/0.05%-TWEEN®-20 after each antibody incubation. The plates were washed an additional two times with PBS and 100 μl pNPP disodium hexahydrate substrate (Sigma) was added to each well and the absorbance at 405 nm was measured (see Table 2).

[4] = Table 2, gum arabic coating, VHH 3 μg/ml
[5] = [VHH] 3 μg/ml (200 nM), gum arabic − (well without gum arabic)

B1: Bivalent VHH 3E6: Uvitex-containing microcapsules coupled with bivalent VHH, a fusion of two VHH with a 9 glycine-serine linker (conjugate)
chain: QVQLQESGGGLVQPGGTLSLSCAASGFNVRWYGMGWFRQAPGKEREGVACISALQETTAYADSVKGRFTLSRDNPKNTLSLQMNNLQPEDTGVYYCATTDCDDSSRMTYTSYLGQGTQVTVSSGGGGSGGGSQVQLQESGGGLVQPGGTLSLSCAASGFNVRWYGMGWFRQAPGKEREGVACISALQETTAYADSVKGRFTLSRDNPKNTLSLQMNNLQPEDTGVYYCATTDCDDSSRMTYTSYLGQGTQVTVSSAAAEQKLISEEDLNGAAHHHHHH
Potato lectin [1]; application of 25-fold less microcapsules, potato lectin
  more microcapsules retained in the well compared to microcapsules with monovalent VHH: 160%
Potato lectin [1]; highest density of microcapsules applied (fully cover the bottom of the well), potato lectin
  more microcapsules retained in the well compared to microcapsules with monovalent VHH: 17%
Potato lectin [1]; no coating (first series, with potato lectin rows), surface coverage 100%, Uvitex microcapsules
  Surface area of bound microcapsules: 66.176
Potato lectin [1]; potato lectin 5 μg/well, Uvitex microcapsules
  binding to antigen-coated surface when coupled to a microcapsule: capable of binding specifically
Potato lectin [1]; potato lectin, surface coverage 4%, Uvitex microcapsules
  Surface area of bound microcapsules: 155.759
Potato lectin [1]; potato lectin, surface coverage 20%, Uvitex microcapsules
  Surface area of bound microcapsules: 511.303
Potato lectin [1]; potato lectin, surface coverage 100%, Uvitex microcapsules
  Surface area of bound microcapsules: 490.546
[2]; no coating (second series, with unrelated antigen rows), surface coverage 100%
  Surface area of bound microcapsules: 55.841
[2]; unrelated antigen, surface coverage 20%
  Surface area of bound microcapsules: 22.114
[2]; unrelated antigen, surface coverage 100%
  Surface area of bound microcapsules: 45.677

B2: VHH 5C4: VHH sequence; SEQ ID NO:18 by order of the list (protein, listed as Lama glama)
VHH: QVQLQESGGGLVQPGGSLRLSCAASGFSLRYFGIGWFRQVAGKEREPVSCSNVRDGNTYYADSVKGRFTISRDNVRNTLYLQMNSLKPEDTAVYSCATTDCEATTWGTYRGYFGQGTQVTVSS
modifications: 5C4
Gum arabic; [4]
  absorbance at 405 nm: 0.873
Gum arabic; [5]
  absorbance at 405 nm: 0.082
Potato lectin [3]
  absorbance at 405 nm: 0.071

B3: VHH 5G5: VHH sequence; SEQ ID NO:24 by order of the list (protein, listed as Lama glama)
VHH: B2 VHH with V40A, P47G, V48I, T78M, S85N, E89D
modifications: 5G5
Gum arabic; [4]
  absorbance at 405 nm: 0.751
Gum arabic; [5]
  absorbance at 405 nm: 0.077
Potato lectin [3]
  absorbance at 405 nm: 0.073

B4: VHH5E5: VHH sequence; SEQ ID NO:21 by order of the list (protein, listed as Lama glama)
VHH: QVQLQESGGGLVQPGGSLTLSCTASGFAMRRFGIGWFRQVVGKEREGVSCSNVHDGSTYYANYVKGRFTIVRDDTKNMLYLHMNSLRAEDTGVYSCATTDCEATAWGTYRGYFGQGTQVTVSS
modifications: 5E5
Gum arabic; [5]
  absorbance at 405 nm: 0.073

B5: VHH7C2: VHH sequence; SEQ ID NO:27 by order of the list (protein, listed as Lama glama)
VHH: QVQLQESGGGLVQPGGSLRLSCAAFGFALANYGIGWFRQAPGKDRERVSCDSVDDGSTHYSNSVQGRFTIIRDNAKNTVFLQMNSLKAEDTAVYYCATTDCDATTWGTWINYRGQGTQVTVSS
modifications: 7C2
Gum arabic; [5]
  absorbance at 405 nm: 0.077

B6: VHH5F5: VHH sequence; SEQ ID NO:22 by order of the list (protein, listed as Lama glama)
VHH: QVQLQESGGGLVQPGGSLRLSCAASGFPLGLYGIGWFRQAPGKEREAVSCDSVDDGSTNYLDSVKGRFTISRDNAKNMVYLQMNSLKPEDTAVYYCATTDCDAKAWGTWTNYRGQGTQVTVSS
modifications: 5F5
Gum arabic; [5]
  absorbance at 405 nm: 0.090

B7: VHH 7D2: VHH sequence; SEQ ID NO:28 by order of the list (protein, listed as Lama glama)
VHH: QVQLQESGGGLVQPGRSLKVACAAAGFSLRYYGIGWFRQAPGKEREAVSCTSANDGSTYYRDSVRGRFTISRDDGKNTVYLQMNRLKPEDTAVYYCATTDCDATSWGTWINYYGQGTQVTVSS
modifications: 7D2
Gum arabic; [4]
  absorbance at 405 nm: 0.274
Gum arabic; [5]
  absorbance at 405 nm: 0.074
Potato lectin [3]
  absorbance at 405 nm: 0.072

B8: VHH7A2: VHH sequence; SEQ ID NO:26 by order of the list (protein, listed as Lama glama)
VHH: QVQLQESGGGSVHPGGSLTLSCLASGFSLSNYGMGWFRQAPGKEREAVSCTSVPNGHIYYAESVKGRFTIVRDNAGNSVYLQMNSLKPEDAANYFCATTDCEAAHWGTWVNYYGQGTQVTVSS
modifications: 7A2
Gum arabic; [5]
  absorbance at 405 nm: 0.075
